B1: LB309 (bispecific antibody)
chain 1: not shown
chain 2: QVQLVQSGAEVKKPGSSVKVSCKASGYAFSNYLIEWVKQAPGQGLEWIGLINPGSGGTNYNEKFKGKATITADKSTSTAYMELSSLRSEDTAVYYCARVYYGNSFAYWGQGTLVTVSS
chain 3: DIVMTQSPDSLAVSLGERATISCKSSQSLLNSGNQKNYLTWYQQKPGQPPKLLIYWASTRESGVPDRFSGSGSGTDFTLTISSLQAEDVAVYYCQNDYFYPFTFGQGTKLEIK
chain 4: not shown
B2: LB308 (bispecific antibody)
chain 1: not shown
chain 2: B1 chain 2
chain 3: B1 chain 3
chain 4: EIVLTQSPATLSLSPGERATLSCRASKGVSTSGYSYLHWYQQKPGQAPRLLIYLASYLESGVPARFSGSGSGTDFTLTISSLEPEDFAVYYCQHSRDLPLTFGGGTKVEIKRTVAAPSVFIFPPSDEQLKSGTASVVCLLNNFYPREAKVQWKVDNALQSGNSQESVTEQDSKDSTYSLSSTLTLSKADYEKHKVYACEVTHQGLSSPVTKSFNRGEC
B3: LB312 (bispecific antibody)
chain 1: not shown
chain 2: B1 chain 3
chain 3: B1 chain 2
chain 4: B2 chain 4
B4: LB313 (bispecific antibody)
chain 1: not shown
chain 2: B2 chain 4
chain 3: B1 chain 2
chain 4: B1 chain 3
B5: LB314 (bispecific antibody)
chain 1: B1 chain 3
chain 2: B1 chain 2
chain 3: not shown
chain 4: B1 chain 2
chain 5: B1 chain 3
chain 6: not shown

Each binder was assayed against T1, human PD-1 (human, UniProt Q15116 25-170) (assay: blocking ELISA; IC50 ratio to the control monoclonal antibody).
T1 construct: extracellular domain; also called PD-1 antigen
T1 sequence (Q15116 25-170): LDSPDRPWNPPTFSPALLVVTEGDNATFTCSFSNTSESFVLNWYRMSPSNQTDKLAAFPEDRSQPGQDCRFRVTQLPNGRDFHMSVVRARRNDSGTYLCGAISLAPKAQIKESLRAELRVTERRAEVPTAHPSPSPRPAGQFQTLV

IC50 fold change | Binder
2.42 | B1
1.8 | B2

Each binder was assayed against T1, human PD-1 (assay: ELISA, PD-1 coated).

EC50 | Binder
0.16 nM | B1
0.25 nM | B2
0.042 nM | B3
0.048 nM | B4
0.083 nM | B5

These binders were tested against T1, human PD-1 (assay: ELISA; EC50 ratio to the control monoclonal antibody).

EC50 fold change | Binder
1.33 | B1
0.93 | B2
3 | B3
3.4 | B4
5.2 | B5

These binders were tested against T1, human PD-1 (assay: blocking ELISA: PD-1 coated, biotin-labelled PD-L1).

IC50 | Binder
0.8 nM | B1
1.93 nM | B2

Source: US20210230272A1 (L AND L BIOPHARMA, published 2021)
